Results taken from patent US12503511 (COMPASS THERAPEUTICS, dated 2025).

What was measured:
[1] = target: T1, purified recombinant His tagged human PD-1 (human, UniProt Q15116 25-170); experiment: SPR KD; fold improvement over parent mAb25
T1 construct: not shown: His tag

[2] = target: T2, cyno PD-1 expressed on cells (cynomolgus); experiment: cell binding titration, CHO cells expressing cyno PD-1
T2 construct: whole, on cells; also called cyPD-1; cynomolgus PD-1

[3] = target: T3, human PD-1 expressed on cells (human, UniProt Q15116 25-288); experiment: cell binding titration, CHO cells expressing human PD-1
T3 construct: also called huPD-1; CHO cells expressing human PD-1

[4] = target: T4, murine PD-1 expressed on cells (murine, UniProt Q02242 25-288); experiment: cell binding titration, CHO cells expressing murine PD-1
T4 construct: whole, on cells; also called muPD-1; mouse PD-1
T4 sequence (looked up): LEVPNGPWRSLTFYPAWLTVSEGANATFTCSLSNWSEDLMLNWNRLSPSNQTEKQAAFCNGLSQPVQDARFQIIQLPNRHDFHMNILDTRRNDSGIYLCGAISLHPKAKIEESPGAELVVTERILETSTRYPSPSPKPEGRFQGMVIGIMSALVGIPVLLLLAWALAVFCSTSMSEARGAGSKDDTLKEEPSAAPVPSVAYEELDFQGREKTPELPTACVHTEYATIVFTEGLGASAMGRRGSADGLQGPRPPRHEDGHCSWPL

[5] = target: T1, purified recombinant His tagged human …; experiment: SPR (Carterra MX96), antibody on chip, His-tagged human PD-1 injected
[6] = target: T2, cyno PD-1 expressed on cells; experiment: cell binding EC50 on CHO-cyno PD-1; fold improvement over parent mAb25
[7] = target: T3, human PD-1 expressed on cells; experiment: cell binding EC50 on CHO-human PD-1; fold improvement over parent mAb25
[8] = target: T3, human PD-1 expressed on cells; experiment: cell binding titration (MFI) on CHO cells expressing human PD-1, panel titled 'Cell Binding: CHO/HuPD-1'
[9] = target: T4, murine PD-1 expressed on cells; experiment: cell binding titration (MFI) on CHO cells expressing mouse PD-1, panel titled 'Cell Binding: CHO/MsPD-1'
[10] = target: T2, cyno PD-1 expressed on cells; experiment: cell binding titration (MFI) on CHO cells expressing cynomolgus PD-1, panel titled 'Cell Binding: CHO/CyPD-1'
[11] = target: T5, cyno PD-L1 expressed on cells (cynomolgus); experiment: cell binding titration, HEK cells expressing cyno PD-L1
T5 construct: whole, on cells; also called cynomolgus PD-L1

[12] = target: T6, human PD-L1 expressed on cells (human, UniProt Q9NZQ7 19-290); experiment: cell binding titration, HEK cells expressing human PD-L1
T6 construct: also called huPDL1; human PD-L1 on HEK cells

[13] = target: T7, purified recombinant His tagged human PD-L1 (human, UniProt Q9NZQ7 19-238); experiment: SPR KD; fold improvement, reference taken as parent mAb24
T7 construct: not shown: His tag

[14] = target: T8, murine PD-L1 expressed on cells (murine, UniProt Q9EP73 19-290); experiment: cell binding titration, A20 cells expressing murine PD-L1
T8 construct: whole, on cells; also called muPDL1; mouse PD-L1

[15] = target: T7, purified recombinant His tagged human …; experiment: SPR (Carterra MX96), antibody on chip, His-tagged human PD-L1 injected
[16] = target: T5, cyno PD-L1 expressed on cells; experiment: cell binding EC50 on HEK-cyno PD-L1; fold improvement, reference taken as parent mAb24
[17] = target: T6, human PD-L1 expressed on cells; experiment: cell binding EC50 on HEK-human PD-L1; fold improvement, reference taken as parent mAb24
[18] = target: T8, murine PD-L1 expressed on cells; experiment: cell binding EC50 on A20-murine PD-L1; fold improvement, reference taken as parent mAb24
[19] = target: T6, human PD-L1 expressed on cells; experiment: cell binding titration (MFI); binder and target taken from the legend paragraph 94 and paragraph 377 (parental clone mAb1, CHO cells expressing human PD-L1); the panel itself prints 'mAb28' and 'CHO/HuPD-1'
[20] = target: T5, cyno PD-L1 expressed on cells; experiment: cell binding titration (MFI); binder and target taken from the legend paragraph 94 and paragraph 377 (parental clone mAb1, CHO cells expressing cynomolgus PD-L1); the panel itself prints 'mAb28' and 'CHO/CyPD-1'

T8 sequence (Q9EP73 19-290): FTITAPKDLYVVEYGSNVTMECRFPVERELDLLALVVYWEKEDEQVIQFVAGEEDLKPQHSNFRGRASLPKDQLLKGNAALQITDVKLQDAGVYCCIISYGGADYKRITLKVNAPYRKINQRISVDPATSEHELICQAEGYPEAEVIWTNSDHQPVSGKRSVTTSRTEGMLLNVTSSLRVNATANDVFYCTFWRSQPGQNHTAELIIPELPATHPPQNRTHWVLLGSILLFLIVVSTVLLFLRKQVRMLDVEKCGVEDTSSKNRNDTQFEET
T7 sequence (Q9NZQ7 19-238 limits assumed): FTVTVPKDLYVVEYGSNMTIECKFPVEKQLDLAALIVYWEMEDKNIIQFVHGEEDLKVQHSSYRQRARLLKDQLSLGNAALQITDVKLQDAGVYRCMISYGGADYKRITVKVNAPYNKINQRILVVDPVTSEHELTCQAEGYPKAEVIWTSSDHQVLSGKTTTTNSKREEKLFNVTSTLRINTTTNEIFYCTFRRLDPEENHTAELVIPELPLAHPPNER
T3 sequence (Q15116 25-288 limits assumed): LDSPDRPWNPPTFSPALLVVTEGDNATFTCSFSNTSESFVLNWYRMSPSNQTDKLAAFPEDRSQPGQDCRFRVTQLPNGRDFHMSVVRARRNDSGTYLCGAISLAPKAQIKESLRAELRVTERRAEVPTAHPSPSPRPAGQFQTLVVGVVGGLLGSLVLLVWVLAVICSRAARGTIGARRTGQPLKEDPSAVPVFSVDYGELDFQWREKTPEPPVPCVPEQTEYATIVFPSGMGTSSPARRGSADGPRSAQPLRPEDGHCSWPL
T6 sequence (Q9NZQ7 19-290 limits assumed): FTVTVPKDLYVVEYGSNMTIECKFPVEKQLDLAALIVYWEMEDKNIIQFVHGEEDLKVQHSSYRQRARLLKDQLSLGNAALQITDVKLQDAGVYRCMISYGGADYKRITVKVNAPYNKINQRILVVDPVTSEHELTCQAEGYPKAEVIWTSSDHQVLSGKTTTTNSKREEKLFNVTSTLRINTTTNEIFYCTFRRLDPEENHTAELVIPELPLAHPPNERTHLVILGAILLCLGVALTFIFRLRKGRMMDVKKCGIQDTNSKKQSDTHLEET
T1 sequence (Q15116 25-170 limits assumed): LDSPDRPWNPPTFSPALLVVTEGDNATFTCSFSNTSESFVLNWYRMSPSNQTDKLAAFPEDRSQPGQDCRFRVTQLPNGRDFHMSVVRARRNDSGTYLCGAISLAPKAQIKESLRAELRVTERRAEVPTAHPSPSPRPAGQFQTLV

B1: mAb28 (antibody, V domains shown)
VH: EVQLLESGGGLVQPGGSLRLSCAASGFTFSSYAMLWVRQAPGKGLEWVSAISNSGTYTYYADSVKGRFTISRDNSKNTLYLQMNSLRAEDTAVYYCARGLDFIVGYTGNDYWGQGTLVTVSS
VL: not shown
notes: also called parental clone mAb28; anti-PD-1 IgG1 antibody (mAb28)
With B1 the “Fold improvement over Parent” value [1] was 43 fold, the EC50 [2] was 1480 pM and the EC50 [3] was 3940 pM. For the same binder, the EC50 [4] was 814 pM, the Kd [5] was 5600 pM and the “Fold improvement over Parent” value [6] was 5.8 fold. The “Fold improvement over Parent” value [7] was 0.2 fold, the “EC50 (read off the curve)” value [8] was about 600 pM and the “EC50 (read off the curve)” value [9] was about 300 pM. The “EC50 (read off the curve)” value [10] was about 400 pM.

B2: mAb1 (antibody, V domains shown)
VH: QVQLVQSGAEVKKPGSSVKVSCKASGGTFSSYAINWVRQAPGQGLEWMGGIIPILGAATYAQKFQGRVTITADESTSTAYMELSSLRSEDTAVYYCARLKGELKDAFDIWGQGTLVTVSS
VL: not shown
notes: also called parental clone mAb1; anti-PD-L1 antibody mAb1
B2 was tested, and the EC50 [11] was 90 pM, the EC50 [12] was 40 pM and the “Fold Improvement” value [13] was 1.1 fold. For the same binder, the EC50 [14] was 740 pM, the Kd [15] was 4160 pM and the “Fold Improvement” value [16] was 3.21 fold. For the same binder, the “Fold Improvement” value [17] was 3.3 fold, the “Fold Improvement” value [18] was 5.26 fold and the “EC50 (read off the curve)” value [19] was about 100 pM. The “EC50 (read off the curve)” value [20] was about 40 pM.

B3: mAb2 (antibody, V domains shown)
VH: QVQLVQSGAEVKKPGSSVKVSCKASGGTFSSYAINWVRQAPGQGLEWMGGIIPVFGTATYAQKFQGRVTITADESTSTAYMELSSLRSEDTAVYYCARLKGELKDAFDIWGQGTMVTVSS
VL: not shown
B3 was tested, and the EC50 [11] was 80 pM, the EC50 [12] was 60 pM and the “Fold Improvement” value [13] was 2 fold. The EC50 [14] was 2000 pM, the Kd [15] was 2200 pM and the “Fold Improvement” value [16] was 3.76 fold. The “Fold Improvement” value [17] was 2.2 fold and the “Fold Improvement” value [18] was 1.96 fold.

B4: mAb3 (antibody, V domains shown)
VH: QVQLVQSGAEVKKPGSSVKVSCKASGGTFSSYAINWVRQAPGQGLEWMGGIIPVFGTATYAQKFQGRVTITADESTSTAYMELSSLRSEDTAVYYCARLKGELKDAFDIWGQGTMVTVSS
VL: not shown
B4 was tested, and the EC50 [12] was 110 pM, the “Fold Improvement” value [13] was 4.8 fold and the EC50 [14] was 1270 pM. The Kd [15] was 900 pM, the “Fold Improvement” value [17] was 1.3 fold and the “Fold Improvement” value [18] was 3.08 fold.

B5: mAb9 (antibody, V domains shown)
VH: QVQLVQSGAEVKKPGSSVKVSCKASGGTFSSYAINWVRQAPGQGLEWMGGIIPVFGTATYAQKFQGRVTITADESTSTAYMELSSLRSEDTAVYYCARLKGELKDAFDEWGQGTLVTVSS
VL: not shown
For B5, the EC50 [11] was 70 pM, the EC50 [12] was 60 pM and the “Fold Improvement” value [13] was 0.8 fold. The binding result [14] was “no binding”, the Kd [15] was 5400 pM and the “Fold Improvement” value [16] was 4.15 fold. The “Fold Improvement” value [17] was 2.5 fold.

B6: mAb18 (antibody, V domains shown)
VH: QVQLVQSGAEVKKPGSSVKVSCKASGGTFSSYAINWVRQAPGQGLEWMGGIIPILGTATYAQKFQGRVTITADESTSTAYMELSSLRSEDTAVYYCARRKGELKDAFDIWGQGTLVTVSS
VL: not shown
For B6, the EC50 [11] was 60 pM, the EC50 [12] was 380 pM and the EC50 [14] was 840 pM. The Kd [15] was 527000 pM, the “Fold Improvement” value [16] was 4.96 fold and the “Fold Improvement” value [17] was 0.4 fold. The “Fold Improvement” value [18] was 4.67 fold.

B7: mAb20 (antibody, V domains shown)
VH: QVQLVQSGAEVKKPGSSVKVSCKASGGTFSSYAINWVRQAPGQGLEWMGGIIPIFGKATYAQKFQGRVTITADESTSTAYMELSSLRSEDTAVYYCARRKGELKDAFDIWGQGTLVTVSS
VL: not shown
For B7, the EC50 [11] was 120 pM, the EC50 [12] was 130 pM and the “Fold Improvement” value [13] was 0.1 fold. The EC50 [14] was 2660 pM, the Kd [15] was 53900 pM and the “Fold Improvement” value [16] was 2.31 fold. The “Fold Improvement” value [17] was 1 fold and the “Fold Improvement” value [18] was 1.47 fold.

B8: mAb22 (antibody, V domains shown)
VH: QVQLVQSGAEVKKPGSSVKVSCKASGGTFSSYAINWVRQAPGQGLEWMGGIIPVFGTATYAQKFQGRVTITADESTSTAYMELSSLRSEDTAVYYCARLKGELKDAFDIWGQGTMVTVSS
VL: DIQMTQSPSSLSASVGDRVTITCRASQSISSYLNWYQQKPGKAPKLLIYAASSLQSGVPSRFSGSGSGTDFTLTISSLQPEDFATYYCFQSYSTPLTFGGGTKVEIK
With B8 the EC50 [11] was 320 pM, the EC50 [12] was 180 pM and the “Fold Improvement” value [13] was 1.8 fold. For the same binder, the binding result [14] was “no binding”, the Kd [15] was 2500 pM and the “Fold Improvement” value [16] was 0.89 fold. For the same binder, the “Fold Improvement” value [17] was 0.8 fold.

B9: mAb10 (antibody, V domains shown)
VH: QVQLVQSGAEVKKPGSSVKVSCKASGGTFSSYAINWVRQAPGQGLEWMGGIIPVFGTATYAQKFQGRVTITADESTSTAYMELSSLRSEDTAVYYCARLKNELKDAFDIWGQGTLVTVSS
VL: not shown
With B9 the EC50 [11] was 90 pM, the EC50 [12] was 40 pM and the “Fold Improvement” value [13] was 0.7 fold. The binding result [14] was “no binding”, the Kd [15] was 6300 pM and the “Fold Improvement” value [16] was 3.05 fold. For the same binder, the “Fold Improvement” value [17] was 3.2 fold.
